{"source": "patent US6274553A", "about": "“Method for stabilizing peptides and freeze-dried medicinal compositions containing peptides obtained by using the method” (Japan Energy Corporation, priority 1997, dated 2001)", "key": {"[1]": {"assay": "Storage stability of lyophilized HV1C3 at 60° C., pH adjusting agents (Experiment Example 2)", "type": "physicochemical", "conditions": "saccharose, mannitol", "description": "Hirudin variant HV1C3, purified saccharose, and mannitol were dissolved in purified water to a final concentration of 6 mg/ml (0.86 mM), 1.6 mg/ml (4.7 mM), and 10 mg/ml (55 mM), respectively. The resulting solution was divided into five equal portions. Four of these portions were adjusted to pH 5.5 with the addition of 30 mM of acetic acid, tartaric acid, citric acid, or phosphoric acid. The peptide solutions for which the pH was thus adjusted and the peptide solution without pH adjustment were filtered through a 0.22 μm membrane filter. The filtrates were filled into 6 ml vials in the amount of 1 ml for each vial. 50 such vials were prepared for each pH of the solution, 250 vials in total. All these 250 vials were lyophilized.\nThe lyophilized samples were stored in an incubator at 60° C. and removed from the incubator after 1, 2, 3, 4, 5, 6, 7, and 8 weeks, respectively. 1 ml of purified water was added to each vial removed. Solutions further diluted 50-fold were used to measure the amount (percentage) of the hirudin variant HV1C3 remaining in the lyophilized sample in the same manner as in Experiment Example 1."}, "[2]": {"assay": "Storage stability of lyophilized HV1C3 at 50° C., liquid chromatography peak area (Experiment Example 1)", "type": "physicochemical", "conditions": "glycine, mannitol", "description": "Hirudin variant HV1C3 having the amino acid sequence shown by Sequence NO. 1 in the Sequence Table, glycine, and mannitol were dissolved in purified water to a final concentration of 6 mg/ml (0.86 mM), 6.7 mg/ml (89 mM), and 33.5 mg/ml (184 mM), respectively. The resulting solution was divided into six equal portions. These portions were adjusted to the pH shown in Table 1 with the addition of 30 mM of tartaric acid, phosphoric acid, or Tris buffer solution. The peptide solutions for which the pH was thus adjusted filtered through a 0.22 μm membrane filter. The filtrates were charged into 6 ml vials in the amount of 1 ml for each vial. 50 such vials were prepared for each pH of the solution, totaling 300 vials. All these 300 vials were lyophilized.\nThe lyophilized samples were stored in an incubator at 50° C. and removed from the incubator after 1, 2, 4, 6, 8 weeks, respectively. 1 ml of purified water was added to each vial removed. Solutions further diluted 50-fold were subjected to liquid chromatography to measure a peak area percentage of hirudin variant HV1C3 under the conditions shown in Table 2. The amount (percentage) of the hirudin variant HV1C3 remaining in the lyophilized sample, after having been stored in the incubator, compound with the amount of the hirudin variant HV1C3 contained at the beginning of the storage was determined."}}, "data": [{"molecule": "hirudin variant HV1C3: Hirudin variant having the amino acid sequence shown by Sequence No. 1 (JP Laid-open No. 173798/1992) (protein) VVYTDCTESGQNLCLCEGSNVCGQGNKCILGSDGEKNQCVTGEGTPKPQSHNQGDFEPIPEDAYDE", "values": [{"measurement": "Remaining peptide (%) 1 wk", "setting": "[1]; pH 5.5, acetic acid 30 mM", "value": 98.3, "unit": "%"}, {"measurement": "Remaining peptide (%) 2 wks", "setting": "[1]; pH 5.5, acetic acid 30 mM", "value": 95.6, "unit": "%"}, {"measurement": "Remaining peptide (%) 3 wks", "setting": "[1]; pH 5.5, acetic acid 30 mM", "value": 94.2, "unit": "%"}, {"measurement": "Remaining peptide (%) 4 wks", "setting": "[1]; pH 5.5, acetic acid 30 mM", "value": 93.3, "unit": "%"}, {"measurement": "Remaining peptide (%) 5 wks", "setting": "[1]; pH 5.5, acetic acid 30 mM", "value": 92.0, "unit": "%"}, {"measurement": "Remaining peptide (%) 6 wks", "setting": "[1]; pH 5.5, acetic acid 30 mM", "value": 91.9, "unit": "%"}, {"measurement": "Remaining peptide (%) 7 wks", "setting": "[1]; pH 5.5, acetic acid 30 mM", "value": 91.4, "unit": "%"}, {"measurement": "Remaining peptide (%) 8 wks", "setting": "[1]; pH 5.5, acetic acid 30 mM", "value": 90.6, "unit": "%"}, {"measurement": "Remaining peptide (%) 1 wk", "setting": "[1]; pH 5.5, citric acid 30 mM", "value": 97.4, "unit": "%"}, {"measurement": "Remaining peptide (%) 2 wks", "setting": "[1]; pH 5.5, citric acid 30 mM", "value": 95.8, "unit": "%"}, {"measurement": "Remaining peptide (%) 3 wks", "setting": "[1]; pH 5.5, citric acid 30 mM", "value": 94.4, "unit": "%"}, {"measurement": "Remaining peptide (%) 4 wks", "setting": "[1]; pH 5.5, citric acid 30 mM", "value": 93.3, "unit": "%"}, {"measurement": "Remaining peptide (%) 5 wks", "setting": "[1]; pH 5.5, citric acid 30 mM", "value": 92.4, "unit": "%"}, {"measurement": "Remaining peptide (%) 6 wks", "setting": "[1]; pH 5.5, citric acid 30 mM", "value": 91.6, "unit": "%"}, {"measurement": "Remaining peptide (%) 7 wks", "setting": "[1]; pH 5.5, citric acid 30 mM", "value": 90.8, "unit": "%"}, {"measurement": "Remaining peptide (%) 8 wks", "setting": "[1]; pH 5.5, citric acid 30 mM", "value": 89.8, "unit": "%"}, {"measurement": "Remaining peptide (%) 1 wk", "setting": "[1]; pH 5.5, phosphoric acid 30 mM", "value": 77.9, "unit": "%"}, {"measurement": "Remaining peptide (%) 2 wks", "setting": "[1]; pH 5.5, phosphoric acid 30 mM", "value": 66.6, "unit": "%"}, {"measurement": "Remaining peptide (%) 3 wks", "setting": "[1]; pH 5.5, phosphoric acid 30 mM", "value": 61.4, "unit": "%"}, {"measurement": "Remaining peptide (%) 4 wks", "setting": "[1]; pH 5.5, phosphoric acid 30 mM", "value": 58.1, "unit": "%"}, {"measurement": "Remaining peptide (%) 5 wks", "setting": "[1]; pH 5.5, phosphoric acid 30 mM", "value": 57.3, "unit": "%"}, {"measurement": "Remaining peptide (%) 6 wks", "setting": "[1]; pH 5.5, phosphoric acid 30 mM", "value": 57.6, "unit": "%"}, {"measurement": "Remaining peptide (%) 1 wk", "setting": "[1]; pH 5.5, tartaric acid 30 mM", "value": 98.4, "unit": "%"}, {"measurement": "Remaining peptide (%) 2 wks", "setting": "[1]; pH 5.5, tartaric acid 30 mM", "value": 97.6, "unit": "%"}, {"measurement": "Remaining peptide (%) 3 wks", "setting": "[1]; pH 5.5, tartaric acid 30 mM", "value": 95.9, "unit": "%"}, {"measurement": "Remaining peptide (%) 4 wks", "setting": "[1]; pH 5.5, tartaric acid 30 mM", "value": 95.2, "unit": "%"}, {"measurement": "Remaining peptide (%) 5 wks", "setting": "[1]; pH 5.5, tartaric acid 30 mM", "value": 92.4, "unit": "%"}, {"measurement": "Remaining peptide (%) 6 wks", "setting": "[1]; pH 5.5, tartaric acid 30 mM", "value": 92.2, "unit": "%"}, {"measurement": "Remaining peptide (%) 7 wks", "setting": "[1]; pH 5.5, tartaric acid 30 mM", "value": 91.9, "unit": "%"}, {"measurement": "Remaining peptide (%) 8 wks", "setting": "[1]; pH 5.5, tartaric acid 30 mM", "value": 90.6, "unit": "%"}, {"measurement": "Remaining peptide (%) 1 wk", "setting": "[1]; without pH adjustment", "value": 96.9, "unit": "%"}, {"measurement": "Remaining peptide (%) 2 wks", "setting": "[1]; without pH adjustment", "value": 94.2, "unit": "%"}, {"measurement": "Remaining peptide (%) 3 wks", "setting": "[1]; without pH adjustment", "value": 92.3, "unit": "%"}, {"measurement": "Remaining peptide (%) 4 wks", "setting": "[1]; without pH adjustment", "value": 90.9, "unit": "%"}, {"measurement": "Remaining peptide (%) 5 wks", "setting": "[1]; without pH adjustment", "value": 89.9, "unit": "%"}, {"measurement": "Remaining peptide (%) 6 wks", "setting": "[1]; without pH adjustment", "value": 88.2, "unit": "%"}, {"measurement": "Remaining peptide (%) 7 wks", "setting": "[1]; without pH adjustment", "value": 87.2, "unit": "%"}, {"measurement": "Remaining peptide (%) 8 wks", "setting": "[1]; without pH adjustment", "value": 86.1, "unit": "%"}, {"measurement": "Remaining peptide (%) 1 wk", "setting": "[2]; pH 4.5, tartaric acid 30 mM", "value": 98.0, "unit": "%"}, {"measurement": "Remaining peptide (%) 2 wks", "setting": "[2]; pH 4.5, tartaric acid 30 mM", "value": 97.7, "unit": "%"}, {"measurement": "Remaining peptide (%) 4 wks", "setting": "[2]; pH 4.5, tartaric acid 30 mM", "value": 95.4, "unit": "%"}, {"measurement": "Remaining peptide (%) 6 wks", "setting": "[2]; pH 4.5, tartaric acid 30 mM", "value": 94.7, "unit": "%"}, {"measurement": "Remaining peptide (%) 8 wks", "setting": "[2]; pH 4.5, tartaric acid 30 mM", "value": 93.4, "unit": "%"}, {"measurement": "Remaining peptide (%) 1 wk", "setting": "[2]; pH 5.5, tartaric acid 30 mM", "value": 98.6, "unit": "%"}, {"measurement": "Remaining peptide (%) 2 wks", "setting": "[2]; pH 5.5, tartaric acid 30 mM", "value": 98.7, "unit": "%"}, {"measurement": "Remaining peptide (%) 4 wks", "setting": "[2]; pH 5.5, tartaric acid 30 mM", "value": 97.5, "unit": "%"}, {"measurement": "Remaining peptide (%) 6 wks", "setting": "[2]; pH 5.5, tartaric acid 30 mM", "value": 96.5, "unit": "%"}, {"measurement": "Remaining peptide (%) 8 wks", "setting": "[2]; pH 5.5, tartaric acid 30 mM", "value": 97.0, "unit": "%"}, {"measurement": "Remaining peptide (%) 1 wk", "setting": "[2]; pH 6.0, phosphoric acid 30 mM", "value": 98.4, "unit": "%"}, {"measurement": "Remaining peptide (%) 2 wks", "setting": "[2]; pH 6.0, phosphoric acid 30 mM", "value": 96.4, "unit": "%"}, {"measurement": "Remaining peptide (%) 4 wks", "setting": "[2]; pH 6.0, phosphoric acid 30 mM", "value": 95.1, "unit": "%"}, {"measurement": "Remaining peptide (%) 6 wks", "setting": "[2]; pH 6.0, phosphoric acid 30 mM", "value": 94.5, "unit": "%"}, {"measurement": "Remaining peptide (%) 8 wks", "setting": "[2]; pH 6.0, phosphoric acid 30 mM", "value": 93.6, "unit": "%"}, {"measurement": "Remaining peptide (%) 1 wk", "setting": "[2]; pH 7.0, Tris buffer 30 mM", "value": 95.7, "unit": "%"}, {"measurement": "Remaining peptide (%) 2 wks", "setting": "[2]; pH 7.0, Tris buffer 30 mM", "value": 92.0, "unit": "%"}, {"measurement": "Remaining peptide (%) 4 wks", "setting": "[2]; pH 7.0, Tris buffer 30 mM", "value": 86.8, "unit": "%"}, {"measurement": "Remaining peptide (%) 6 wks", "setting": "[2]; pH 7.0, Tris buffer 30 mM", "value": 72.0, "unit": "%"}, {"measurement": "Remaining peptide (%) 8 wks", "setting": "[2]; pH 7.0, Tris buffer 30 mM", "value": 70.3, "unit": "%"}, {"measurement": "Remaining peptide (%) 1 wk", "setting": "[2]; pH 7.0, phosphoric acid 30 mM", "value": 99.0, "unit": "%"}, {"measurement": "Remaining peptide (%) 2 wks", "setting": "[2]; pH 7.0, phosphoric acid 30 mM", "value": 97.3, "unit": "%"}, {"measurement": "Remaining peptide (%) 4 wks", "setting": "[2]; pH 7.0, phosphoric acid 30 mM", "value": 93.3, "unit": "%"}, {"measurement": "Remaining peptide (%) 6 wks", "setting": "[2]; pH 7.0, phosphoric acid 30 mM", "value": 92.7, "unit": "%"}, {"measurement": "Remaining peptide (%) 8 wks", "setting": "[2]; pH 7.0, phosphoric acid 30 mM", "value": 90.0, "unit": "%"}, {"measurement": "Remaining peptide (%) 1 wk", "setting": "[2]; pH 8.0, Tris buffer 30 mM", "value": 81.9, "unit": "%"}, {"measurement": "Remaining peptide (%) 2 wks", "setting": "[2]; pH 8.0, Tris buffer 30 mM", "value": 58.0, "unit": "%"}]}]}
